Test [1] deals with 1G4 TCR. The test is described as follows: flow cytometry; PE tetramer (1 µg/mL) on human T cells transduced with the 1G4 TCR; tetramer from TAPBPR-catalysed peptide exchange; no percent sign printed. (In flow cytometry, cells or beads pass a laser one at a time.)
Test [2] concerns the target 1G4 TCR. The test is described as follows: flow cytometry; PE tetramer (1 µg/mL) on human T cells transduced with the 1G4 TCR; tetramer from conventional refolding; no percent sign printed.
Test [3] concerns the target 1G4 TCR. The test is described as follows: flow cytometry; PE tetramer (1 µg/mL) on human T cells transduced with the 1G4 TCR; negative control; no percent sign printed.
For test [4], the target named is HLA-A*24:02/hb2m/VYGJVRACL (peptide-loaded) (human). As to the kind of experiment: SPR; HLA-A*24:02/[..], 0.1 to 10 µM, over chicken TAPBPR-biotin on a streptavidin chip; kinetic fit.
The target of test [5] is HLA-B*08:01/hb2m/FLRGRAJGL (peptide-loaded) (human).
Test [6] deals with MR1 C262S loaded with acetyl-6-formylpterin (Ac-6-FP) (UniProt Q95460). The test is described as follows: SPR, TAPBPR-biotin on streptavidin chip, Ac-6-FP loaded MR1 C262S as analyte. On the technique in general: SPR reads the build-up and loss of mass on a sensor chip optically.
The target of test [7] is peptide-deficient (empty) HLA-A*02:01/hb2m (human). The test is described as follows: SPR, TAPBPR-biotin on streptavidin chip, UV-irradiated (empty) HLA as analyte.
The target of test [8] is peptide-deficient (empty) HLA-A*30:01/hb2m (human). Described as above.
Test [9] deals with peptide-deficient (empty) HLA-G*01:01/hb2m (human). Described as above.
The target in test [10] is peptide-deficient (empty) HLA-B*37:01/hb2m (human). The description is as above.
Test [11] addresses peptide-deficient (empty) HLA-B*08:01/hb2m (human) (UniProt P01889). The description is as above.
For test [12], the target named is peptide-deficient (empty) HLA-A*68:02/hb2m (human). The description is as above.
In test [13] the target is peptide-deficient (empty) HLA-A*24:02/hb2m (human). The test is described as above.
Test [14] deals with peptide-deficient (empty) HLA-A*01:01/hb2m (human). The description is as above.
For test [15], the target named is peptide-deficient (empty) HLA-A*11:01/hb2m (human). The test is described as above.
Test [16] has as its target peptide-deficient (empty) HLA-A*29:02/hb2m (human). The description is as above.
The target in test [17] is HLA-A*29:02/hb2m/VFAQVKQJY (peptide-loaded) (human). As to the kind of experiment: SPR, TAPBPR-biotin on streptavidin chip, peptide-loaded HLA as analyte.
Test [18] addresses HLA-A*24:02/hb2m/VYGJVRACL (peptide-loaded) (human). The description is as above.
In test [19] the target is HLA-F*01:01/hb2m/LILRWE(bF)D (human). As to the kind of experiment: SPR; HLA-F*01:01/hb2m/LILRWE(bF)D, 0.0625 to 2 µM, over chTAPBPR-biotin on a streptavidin chip; kinetic fit.
Test [20] concerns the target HLA-A*01:01/hb2m/STAPGJLEY (peptide-loaded) (human). The test is described as follows: cell-based or functional assay.
Test [21] concerns the target MR1 C262S loaded with acetyl-6-formylpterin (Ac-6-FP) (UniProt Q95460). The test is described as follows: SPR; MR1 C262S/Ac-6-FP, 10 to 100 µM, over hTAPBPR^KRQ-biotin on a streptavidin chip; steady-state fit in the inset.
Test [22] has the same target. As to the kind of experiment: SPR; MR1 C262S/Ac-6-FP, 10 to 100 µM, over hTAPBPR^RQ-biotin on a streptavidin chip; steady-state fit in the inset.

One may read the Kd as a measure of binding affinity in units of concentration. Higher therefore signals weaker binding.

“Exchanged A2/M4A (NY-ESO-1) (from UniProt A*02:01) (peptide-MHC)” came in with a tet+ (share of events in the tetramer-positive live gate) in the test with 1G4 TCR [1] of 38.7.

For the substance “Exchanged A2/W5A (NY-ESO-1) (from UniProt A*02:01) (peptide-MHC)”, the tet+ (share of events in the tetramer-positive live gate) with 1G4 TCR [1] was 2.18.

As for “Exchanged S1A (NY-ESO-1) (from UniProt A*02:01) (peptide-MHC)”, the tet+ (share of events in the tetramer-positive live gate) in the test with 1G4 TCR [1] was found to be 72.1.

For “NY-ESO-1 (HLA-A*02:01/… tetramer) (peptide-MHC)”, the tet+ (share of events in the tetramer-positive live gate) in the test with 1G4 TCR [1] was found to be 71.4; in the test with 1G4 TCR [2], 78.7.

For “Refolded Rubella (from UniProt A*02:01) (peptide-MHC)”, the tet+ (share of events in the tetramer-positive live gate) in the test with 1G4 TCR [3] was determined as 0.75.

Take “chicken TAPBPR luminal domain (chTAPBPR)”: the Kd in [4] amounted to 0.37 µM; in test [6], 19.2 µM; in test [7], 2.96 µM; in test [8], 1.28 µM; in test [9], 11.2 µM; in [10], 2.19 µM. Moreover, the Kd in test [11] came to 1.89 µM; in test [12], 0.43 µM; in [13] it was 1.68 µM; in test [14] it was 1.46 µM; in test [15] it was 0.91 µM; in [16], 0.29 µM. Moreover, the dissociation constant Kd was determined as 0.17 µM in test [17], 17.4 µM in [18] and 0.76 µM in test [19]. In [5], the -TΔS is -48.1 kJ/mol. In addition, the ΔG in [5] is -18.8 kJ/mol. Also, the ΔH in [5] came out at 29.3 kJ/mol. The substance also came in with a kapp of fluorescent peptide binding at 5 uM chaperone (FP) in test [20] of 0.00017 s⁻¹.

As for “hTAPBPR^KRQ (R105K, K211R, R270Q) (from UniProt Q9BX59 22-405)”, the Kd in test [21] is 62 µM.

“hTAPBPR^RQ (K211R, R270Q) (from UniProt Q9BX59 22-405)” gave a Kd in test [22] of 49.5 µM.

On to “human TAPBPR luminal domain (hTAPBPR) (from UniProt Q9BX59 22-405)”, for which, in [6], the Kd was found to be 98.7 µM.

Values taken from patent publication US20250179143A1, “SYSTEMS AND METHODS FOR CHAPERONE-MEDIATED LIGAND EXCHANGE ON MHC-I AND MHC-RELATED MOLECULES USING CHICKEN TAPBPR” (priority 2022, published 2025).
